Laboratory results taken from the supplement of paper PMC10567573.

B1: TOR1AIP2 (parent)
chain: SPGHSSAGQEGEDTLRRRLLAPEA

Variants of: B1
Assay: protein stability index of a GFP-peptide fusion (GPS, HEK-293T) (PSI 1-6); higher = more stable
Details: c terminus: a fixed tail appended
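Note: lentivirally expressed fusions sorted by FACS into six bins by GFP to DsRed ratio, PSI derived from sequencing read proportions per bin multiplied by bin number.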

Variant | protein stability index
SPGHSSAGQEAEDTLRRRLLAPEA [G11A] | 4
SPGHSSAGQEVEDTLRRRLLAPEA [G11V] | 4.04
SPGHSSAGQETEDTLRRRLLAPEA [G11T] | 4.62
SPGHSSAGQEHEDTLRRRLLAPEA [G11H] | 4.07
SPGHSSAGREGEDTLRRRLLAPEA [Q9R] | 3.5
SPGHSSAGKEGEDTLRRRLLAPEA [Q9K] | 4.02
SPGHSSAGFEGEDTLRRRLLAPEA [Q9F] | 4.11
SPGHSSAGVEGEDTLRRRLLAPEA [Q9V] | 3.98
SPGHSSAGPEGEDTLRRRLLAPEA [Q9P] | 4.53
SPGHSSAGYEGEDTLRRRLLAPEA [Q9Y] | 3.68
SPGHSSAGGEGEDTLRRRLLAPEA [Q9G] | 2.94
SPGHSSAGTEGEDTLRRRLLAPEA [Q9T] | 3.96
SPGHSSAGDEGEDTLRRRLLAPEA [Q9D] | 3.84
SPGHSSAGWEGEDTLRRRLLAPEA [Q9W] | 3.04
SPGHSSAGMEGEDTLRRRLLAPEA [Q9M] | 3.43
SPGHSSAGEEGEDTLRRRLLAPEA [Q9E] | 4.31
SPGHSSAGCEGEDTLRRRLLAPEA [Q9C] | 3.22
SPGHSSAGIEGEDTLRRRLLAPEA [Q9I] | 4.08
SPGHSSAGSEGEDTLRRRLLAPEA [Q9S] | 4.24
SPGHSSAGHEGEDTLRRRLLAPEA [Q9H] | 3.83
SPGHSSAGAEGEDTLRRRLLAPEA [Q9A] | 4.35
SPGHSSAGNEGEDTLRRRLLAPEA [Q9N] | 4.05
SPGHSSAGLEGEDTLRRRLLAPEA [Q9L] | 3.58
SPGHSSVGQEGEDTLRRRLLAPEA [A7V] | 4.25

Variant | protein stability index
SPGHSSQGQEGEDTLRRRLLAPEA [A7Q] | 4.24
SPGHSSKGQEGEDTLRRRLLAPEA [A7K] | 3.66
SPGHSSPGQEGEDTLRRRLLAPEA [A7P] | 3.42
SPGHSSWGQEGEDTLRRRLLAPEA [A7W] | 3.89
SPGHSSSGQEGEDTLRRRLLAPEA [A7S] | 4.01
SPGHSSIGQEGEDTLRRRLLAPEA [A7I] | 3.92
SPGHSSRGQEGEDTLRRRLLAPEA [A7R] | 3.82
SPGHSSTGQEGEDTLRRRLLAPEA [A7T] | 4.18
SPGHSSNGQEGEDTLRRRLLAPEA [A7N] | 3.76
SPGHSSMGQEGEDTLRRRLLAPEA [A7M] | 3.79
SPGHSSLGQEGEDTLRRRLLAPEA [A7L] | 3.73
SPGHSSYGQEGEDTLRRRLLAPEA [A7Y] | 3.9
SPGHSSHGQEGEDTLRRRLLAPEA [A7H] | 3.77
SPGHSSAGQPGEDTLRRRLLAPEA [E10P] | 3.94
SPGHSSAGQIGEDTLRRRLLAPEA [E10I] | 3.63
SPGHSSAGQQGEDTLRRRLLAPEA [E10Q] | 3.88
SPGHSSAGQKGEDTLRRRLLAPEA [E10K] | 3.27
SPGHSSAGQDGEDTLRRRLLAPEA [E10D] | 3.94
SPGHSSAGQVGEDTLRRRLLAPEA [E10V] | 4.04
SPGHSSAGQFGEDTLRRRLLAPEA [E10F] | 3.68
SPGHSSAGQNGEDTLRRRLLAPEA [E10N] | 3.72
SPGHSSAGQGGEDTLRRRLLAPEA [E10G] | 3.91
SPGHSSAGQCGEDTLRRRLLAPEA [E10C] | 2.67
SPGHSSAGQSGEDTLRRRLLAPEA [E10S] | 4.06

Variant | protein stability index
SPGHSSAGQMGEDTLRRRLLAPEA [E10M] | 3.58
SPGHSSAGQYGEDTLRRRLLAPEA [E10Y] | 3.51
SPGHSSAGQRGEDTLRRRLLAPEA [E10R] | 3.62
SPGHSSAGQHGEDTLRRRLLAPEA [E10H] | 3.61
SPGHSSAGQLGEDTLRRRLLAPEA [E10L] | 3.31
SPGHSSAGQAGEDTLRRRLLAPEA [E10A] | 3.75
SPGHSSAGQWGEDTLRRRLLAPEA [E10W] | 3.42
SPGHSSAGQTGEDTLRRRLLAPEA [E10T] | 3.81
SPGHSSAGQEGEDTLGRRLLAPEA [R16G] | 5.41
SPGHSSAGQEGEDTLCRRLLAPEA [R16C] | 5.14
SPGHSSAGQEGEDTLDRRLLAPEA [R16D] | 5.68
SPGHSSAGQEGEDTLKRRLLAPEA [R16K] | 4.79
SPGHSSAGQEGEDTLVRRLLAPEA [R16V] | 5.51
SPGHSSAGQEGEDTLWRRLLAPEA [R16W] | 3.52
SPGHSSAGQEGEDTLTRRLLAPEA [R16T] | 5.04
SPGHSSAGQEGEDTLQRRLLAPEA [R16Q] | 5.34
SPGHSSAGQEGEDTLPRRLLAPEA [R16P] | 4.9
SPGHSSAGQEGEDTLIRRLLAPEA [R16I] | 5.06
SPGHSSAGQEGEDTLYRRLLAPEA [R16Y] | 4.44
SPGHSSAGQEGEDTLHRRLLAPEA [R16H] | 5.38
SPGHSSAGQEGEDTLLRRLLAPEA [R16L] | 4.61
SPGHSSAGQEGEDTLERRLLAPEA [R16E] | 5.46
SPGHSSAGQEGEDTLARRLLAPEA [R16A] | 5.37
SPGHSSAGQEGEDTLMRRLLAPEA [R16M] | 4.6

Variant | protein stability index
SPGHSSAGQEGEDTLFRRLLAPEA [R16F] | 4.71
SPGHSSAGQEGEDTLNRRLLAPEA [R16N] | 5.23
SPGHSSAGQEGEDTLSRRLLAPEA [R16S] | 5.63
SPGHSSAGQEGEDWLRRRLLAPEA [T14W] | 4.5
SPGHSSAGQEGEDQLRRRLLAPEA [T14Q] | 4.11
SPGHSSAGQEGEDNLRRRLLAPEA [T14N] | 3.63
SPGHSSAGQEGEDMLRRRLLAPEA [T14M] | 4.34
SPGHSSAGQEGEDLLRRRLLAPEA [T14L] | 4.84
SPGHSSAGQEGEDHLRRRLLAPEA [T14H] | 4.33
SPGHSSAGQEGEDDLRRRLLAPEA [T14D] | 4.18
SPGHSSAGQEGEDALRRRLLAPEA [T14A] | 4.06
SPGHSSAGQEGEDCLRRRLLAPEA [T14C] | 2.67
SPGHSSAGQEGEDSLRRRLLAPEA [T14S] | 3.08
SPGHSSAGQEGEDFLRRRLLAPEA [T14F] | 4.39
SPGHSSAGQEGEDPLRRRLLAPEA [T14P] | 4.33
SPGHSSAGQEGEDGLRRRLLAPEA [T14G] | 4.41
SPGHSSAGQEGEDRLRRRLLAPEA [T14R] | 4.65
SPGHSSAGQEGEDVLRRRLLAPEA [T14V] | 3.97
SPGHSSAGQEGEDELRRRLLAPEA [T14E] | 4.4
SPGHSSAGQEGEDILRRRLLAPEA [T14I] | 4.42
SPGHSSAGQEGEDYLRRRLLAPEA [T14Y] | 4.2
SPGHSSAGQEGEDKLRRRLLAPEA [T14K] | 4.94
